These results are taken from publication doi:10.1101/2025.02.18.638932, “CHIP protects lysosomes from CLN4 mutant-induced membrane damages” (bioRxiv, 2025).

The data set concerns the molecule itself. Briefly: immunoblotting of SDS-resistant high molecular weight species; purified DNAJC5 protein incubated with buffer or calf liver cytosol with or without ATP at 37 °C for 30 min, then immunoblotting.

B1: recombinant human DNAJC5 L116Δ (natural protein, UniProt Q9H3Z4 1-198, looked up)
chain: MADQRQRSLSTSGESLYHVLGLDKNATSDDIKKSYRKLALKYHPDKNPDNPEAADKFKEINNAHAILTDATKRNIYDKYGSLGLYVAEQFGEENVNTYFVLSSWWAKALFVFCGLTCCYCCCCLCCCFNCCCGKCKPKAPEGEETEFYVSPEDLEAQLQSDEREATDTPIVIQPASATETTQLTADSHPSYHTDGFN
notes: DNAJC5, human, CLN4 disease mutant L116Δ (p.L116del, c.346-348del); A TEV cleavage site lies between the GST tag and the protein; also called hDNAJC5 L116Δ; purified L116Δ mutant; source: E. coli BL21(DE3), purified (Glutathione Sepharose, eluted by TEV protease)
As to B1, the binding result is recorded as “binds”.
